Results published in publication PMC12887176, “IRF1 is a context-dependent homeostatic gatekeeper of basal immunity and antiviral readiness”.

Biological target: T1, IRF1 DBD-mNeonGreen (UniProt P10914 1-136)
T1 sequence: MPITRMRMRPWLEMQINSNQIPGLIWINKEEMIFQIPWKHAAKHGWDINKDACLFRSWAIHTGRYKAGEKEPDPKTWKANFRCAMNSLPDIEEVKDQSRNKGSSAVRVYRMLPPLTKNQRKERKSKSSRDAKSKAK
Assay: mass photometry; 1:1 protein:DNA; ~45 to ~65 kDa; 1:1 molar protein:DNA, 4 h at room temperature; protein lysed in PBS with 360 mM NaCl, 10% glycerol, DTT (assay buffers and pH not given); PBM: PBS, 360 mM NaCl, 1 mM DTT, 2% milk, 0.2% Triton X-100, room temperature
Conditions: protein: recombinant; tags: mNeonGreen fusion (42 kDa total); blunt

B1: specific DNA (IRF1 consensus) (dsDNA)
DNA 1: GAGAAGTGAAAGTACTTTCACTTCTC
DNA 2: GAGAAGTGAAAGTACTTTCACTTCTC
B1: binds.
